Protein stability index data for 94 variants are collected here from the supplement of paper PMC10567573.

Sequences and labels used below:
B1: C22orf15 (parent)
chain: PRGRAHLLPNPYQQDFLGLPEELR
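Also: lentivirally expressed fusions sorted by FACS into six bins by GFP to DsRed ratio, PSI derived from sequencing read proportions per bin multiplied by bin number.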

In the data set the parent is B1. As to the kind of experiment: protein stability index of a GFP-peptide fusion (GPS, HEK-293T) (PSI 1-6); higher = more stable. As to conditions: c terminus: a fixed tail appended.
As for PRGRAHLLPRPYQQDFLGLPEELR [N10R], the protein stability index came out at 3.53.
PRGRAHLLPHPYQQDFLGLPEELR [N10H]: the protein stability index was found to be 4.06.
In the case of PRGRAHLLPDPYQQDFLGLPEELR [N10D], the protein stability index was 4.16.
To PRGRAHLLPFPYQQDFLGLPEELR [N10F] belongs 3.35.
As to PRGRAHLLPGPYQQDFLGLPEELR [N10G], the protein stability index came out at 4.
With PRGRAHLLPKPYQQDFLGLPEELR [N10K], the protein stability index was 3.77.
For PRGRAHLLPIPYQQDFLGLPEELR [N10I], the protein stability index is 3.97.
PRGRAHLLPLPYQQDFLGLPEELR [N10L]: the protein stability index turned out to be 3.69.
To PRGRAHLLPWPYQQDFLGLPEELR [N10W] belongs 2.88.
Take PRGRAHLLPVPYQQDFLGLPEELR [N10V]: the protein stability index was determined as 4.14.
For PRGRAHLLPTPYQQDFLGLPEELR [N10T], the protein stability index amounted to 4.05.
PRGRAHLLPPPYQQDFLGLPEELR [N10P]: the protein stability index turned out to be 4.07.
On to PRGRAHLLPSPYQQDFLGLPEELR [N10S], for which the protein stability index came out at 4.29.
On to PRGRAHLLPMPYQQDFLGLPEELR [N10M], for which the protein stability index was determined as 3.54.
On to PRGRAHLLPYPYQQDFLGLPEELR [N10Y], for which the protein stability index came out at 3.46.
Regarding PRGRAHLLPQPYQQDFLGLPEELR [N10Q], the protein stability index came out at 4.12.
For the variant PRGRAHLLPEPYQQDFLGLPEELR [N10E], the protein stability index was 3.61.
To PRGRAHLLPNPDQQDFLGLPEELR [Y12D] belongs 4.53; to PRGRAHLLPNPTQQDFLGLPEELR [Y12T], 4.44; to PRGRAHLLPNPEQQDFLGLPEELR [Y12E], 4.54.
Consider PRGRAHLLPNPCQQDFLGLPEELR [Y12C], for which the protein stability index was 3.84.
To PRGRAHLLPNPGQQDFLGLPEELR [Y12G] belongs 4.87; to PRGRAHLLPNPSQQDFLGLPEELR [Y12S], 4.54; to PRGRAHLLPNPPQQDFLGLPEELR [Y12P], 4.41.
Turning to PRGRAHLLPNPHQQDFLGLPEELR [Y12H], the protein stability index was found to be 4.02.
To PRGRAHLLPNPKQQDFLGLPEELR [Y12K] belongs 4.11; to PRGRAHLLPNPQQQDFLGLPEELR [Y12Q], 4.07.
As for PRGRAHLLPNPMQQDFLGLPEELR [Y12M], the protein stability index is 4.61.
For PRGRAHLLPNPNQQDFLGLPEELR [Y12N], the protein stability index was 4.61.
To PRGRAHLLPNPRQQDFLGLPEELR [Y12R] belongs 4.33; to PRGRAHLLPNPFQQDFLGLPEELR [Y12F], 3.5; to PRGRAHLLPNPLQQDFLGLPEELR [Y12L], 3.85.
To PRGRAHLLPNPVQQDFLGLPEELR [Y12V] belongs 4.17.
PRGRAHLLPNPIQQDFLGLPEELR [Y12I]: the protein stability index came out at 4.36.
Turning to PRGRAHLLPNPWQQDFLGLPEELR [Y12W], the protein stability index was 2.87.
PRGRAHLLPNPAQQDFLGLPEELR [Y12A]: the protein stability index came out at 4.51.
For PRGRAHLLPNPYTQDFLGLPEELR [Q13T], the protein stability index worked out at 3.64.
Regarding PRGRAHLLPNPYDQDFLGLPEELR [Q13D], the protein stability index is 4.1.
Turning to PRGRAHLLPNPYHQDFLGLPEELR [Q13H], the protein stability index was 3.74.
To PRGRAHLLPNPYIQDFLGLPEELR [Q13I] belongs 3.1; to PRGRAHLLPNPYMQDFLGLPEELR [Q13M], 3.42.
As for PRGRAHLLPNPYKQDFLGLPEELR [Q13K], the protein stability index was found to be 3.65.
For PRGRAHLLPNPYWQDFLGLPEELR [Q13W], the protein stability index worked out at 2.7.
To PRGRAHLLPNPYPQDFLGLPEELR [Q13P] belongs 4.21; to PRGRAHLLPNPYVQDFLGLPEELR [Q13V], 3.59; to PRGRAHLLPNPYCQDFLGLPEELR [Q13C], 3.39.
PRGRAHLLPNPYFQDFLGLPEELR [Q13F]: the protein stability index turned out to be 3.1.
Consider PRGRAHLLPNPYAQDFLGLPEELR [Q13A], for which the protein stability index stood at 3.7.
To PRGRAHLLPNPYSQDFLGLPEELR [Q13S] belongs 3.56; to PRGRAHLLPNPYGQDFLGLPEELR [Q13G], 4.1; to PRGRAHLLPNPYYQDFLGLPEELR [Q13Y], 3.46.
As for PRGRAHLLPNPYEQDFLGLPEELR [Q13E], the protein stability index worked out at 4.05.
On to PRGRAHLLPNPYNQDFLGLPEELR [Q13N], for which the protein stability index worked out at 3.66.
With PRGRAHLLPNPYRQDFLGLPEELR [Q13R], the protein stability index amounted to 3.75.
To PRGRAHLLPNPYLQDFLGLPEELR [Q13L] belongs 3.43.
On to PRGRAHLLPNPYQDDFLGLPEELR [Q14D], for which the protein stability index was found to be 4.7.
Turning to PRGRAHLLPNPYQCDFLGLPEELR [Q14C], the protein stability index came to 3.46.
Turning to PRGRAHLLPNPYQADFLGLPEELR [Q14A], the protein stability index was found to be 3.73.
As to PRGRAHLLPNPYQMDFLGLPEELR [Q14M], the protein stability index came out at 3.56.
With PRGRAHLLPNPYQTDFLGLPEELR [Q14T], the protein stability index is 3.77.
Regarding PRGRAHLLPNPYQLDFLGLPEELR [Q14L], the protein stability index amounted to 3.54.
Consider PRGRAHLLPNPYQHDFLGLPEELR [Q14H], for which the protein stability index was 3.92.
As to PRGRAHLLPNPYQYDFLGLPEELR [Q14Y], the protein stability index is 2.98.
Turning to PRGRAHLLPNPYQNDFLGLPEELR [Q14N], the protein stability index came to 3.91.
In the case of PRGRAHLLPNPYQRDFLGLPEELR [Q14R], the protein stability index is 3.19.
On to PRGRAHLLPNPYQKDFLGLPEELR [Q14K], for which the protein stability index is 4.01.
On to PRGRAHLLPNPYQGDFLGLPEELR [Q14G], for which the protein stability index came to 3.67.
Consider PRGRAHLLPNPYQWDFLGLPEELR [Q14W], for which the protein stability index was determined as 2.93.
With PRGRAHLLPNPYQFDFLGLPEELR [Q14F], the protein stability index stood at 3.66.
Regarding PRGRAHLLPNPYQVDFLGLPEELR [Q14V], the protein stability index was found to be 3.26.
To PRGRAHLLPNPYQIDFLGLPEELR [Q14I] belongs 3.19.
To PRGRAHLLPNPYQSDFLGLPEELR [Q14S] belongs 3.96.
Take PRGRAHLLPNPYQEDFLGLPEELR [Q14E]: the protein stability index came to 4.47.
As to PRGRAHLLPNPYQPDFLGLPEELR [Q14P], the protein stability index amounted to 4.5.
To PRGRAHLLPNPYQQAFLGLPEELR [D15A] belongs 3.38.
For PRGRAHLLPNQYQQDFLGLPEELR [P11Q], the protein stability index amounted to 4.35.
As for PRGRAHLLPNYYQQDFLGLPEELR [P11Y], the protein stability index is 3.56.
To PRGRAHLLPNRYQQDFLGLPEELR [P11R] belongs 3.33; to PRGRAHLLPNGYQQDFLGLPEELR [P11G], 4.3; to PRGRAHLLPNCYQQDFLGLPEELR [P11C], 3.51.
With PRGRAHLLPNNYQQDFLGLPEELR [P11N], the protein stability index amounted to 4.24.
PRGRAHLLPNKYQQDFLGLPEELR [P11K]: the protein stability index is 4.04.
As to PRGRAHLLPNHYQQDFLGLPEELR [P11H], the protein stability index worked out at 3.33.
With PRGRAHLLPNVYQQDFLGLPEELR [P11V], the protein stability index is 3.5.
With PRGRAHLLPNAYQQDFLGLPEELR [P11A], the protein stability index came out at 3.41.
On to PRGRAHLLPNIYQQDFLGLPEELR [P11I], for which the protein stability index amounted to 3.55.
Consider PRGRAHLLPNSYQQDFLGLPEELR [P11S], for which the protein stability index is 3.83.
Take PRGRAHLLPNDYQQDFLGLPEELR [P11D]: the protein stability index is 4.12.
Regarding PRGRAHLLPNFYQQDFLGLPEELR [P11F], the protein stability index came out at 3.44.
Regarding PRGRAHLLPNLYQQDFLGLPEELR [P11L], the protein stability index was determined as 3.42.
With PRGRAHLLPNTYQQDFLGLPEELR [P11T], the protein stability index was found to be 4.1.
Turning to PRGRAHLLPNMYQQDFLGLPEELR [P11M], the protein stability index was 3.72.
On to PRGRAHLLPNEYQQDFLGLPEELR [P11E], for which the protein stability index was determined as 4.74.
For the variant PRGRAHLLPNWYQQDFLGLPEELR [P11W], the protein stability index was determined as 2.71.
